Experiments:
[1] = system: PSMA-expressing LNCaP cancer xenografts; settings: mouse, in vivo
Method: (§1) LNCaP cell line was obtained from ATCC (LNCaP clone FGC, CRL-1740). […] Cells were cultured in PRM I 1640 medium supplemented with 10% FBS, penicillin (100 U/mL) and streptomycin (100 μg/mL) at 37° C. in a humidified incubator containing 5% CO2. Cells grown to 80-90% confluence were then washed with sterile phosphate-buffered saline (1× PBS pH 7.4) and collected by trypsinization. The collected cells concentration was counted with a Hausser Scientific (Horsham, Pa.) Hemacytometer.
(§2) Imaging and biodistribution experiments were performed using NODSCID 1 L2RγKO male mice. Mice were anesthetized by inhalation with 2% isoflurane in oxygen, and implanted subcutaneously with 1×10^7 LNCaP cells behind left shoulder. Mice were imaged or used in biodistribution studies when the tumor grew up to reach 5-8 mm in diameter during 5-6 weeks.
(§3) PET imaging experiments were conducted using Siemens Inveon micro PET/CT scanner. Each tumor bearing mouse was injected 6-8 MBq of Ga-68 labeled tracer through the tail vein under anesthesia (2% isoflurane in oxygen). The mice were allowed to recover and roam freely in their cage. After 50 min, the mice were sedated again with 2% isoflurane in oxygen inhalation and positioned in the scanner. A 10-min CT scan was conducted first for localization and attenuation correction after segmentation for reconstructing the PET images. Then, a 10-min static PET imaging was performed to determined uptake in tumor and other organs. The mice were kept warm by a heating pad during acquisition. For biodistribution studies, the mice were injected with the radiotracer as described above. The mice was anesthetized with 2% isoflurane inhalation, and euthanized by CO2 inhalation. Blood was withdrawn immediately from the heart, and the organs/tissues of interest were collected. The collected organs/tissues were weighed and counted using a Perkin Elmer (Waltham, Mass.) Wizard2 2480 gamma counter. The uptake in each organ/tissue was normalized to the injected dose using a standard curve, and expressed as the percentage of the injected dose per gram of tissue (% ID/g).
(§4) LNCaP cell line was obtained from ATCC (LNCaP clone FGC, CRL-1740). […] Cells were cultured in PRM I 1640 medium supplemented with 10% FBS, penicillin (100 U/mL) and streptomycin (100 μg/mL) at 37° C. in a humidified incubator containing 5% CO2. Cells grown to 80-90% confluence were then washed with sterile phosphate-buffered saline (1× PBS pH 7.4), and collected by trypsinization. The collected cell concentration was counted with a Hausser Scientific (Horsham, Pa.) Hemacytometer.
(§5) Imaging and biodistribution experiments were performed using NODSCID 1L2RγKO male mice. Mice were anesthetized by inhalation with 2% isoflurane in oxygen, and implanted subcutaneously with 1×10^7 LNCaP cells behind left shoulder. Mice were imaged or used in biodistribution studies when the tumor grew up to reach 5-8 mm in diameter during 5-6 weeks.
(§6) PET imaging experiments were conducted using Siemens Inveon micro PET/CT scanner. Each tumor bearing mouse was injected 6-8 MBq of Ga-68 or F-18 labeled tracer through the tail vein under anesthesia (2% isoflurane in oxygen). The mice were allowed to recover and roam freely in their cage. After 50 min, the mice were sedated again with 2% isoflurane in oxygen inhalation and positioned in the scanner. A 10-min CT scan was conducted first for localization and attenuation correction after segmentation for reconstructing the PET images. Then, a 10-min static PET imaging was performed to determined uptake in tumor and other organs.
(§7) For biodistribution studies, the mice were injected with the radiotracer as described above.

in vivo = settings: male, NODSCID 1L2RγKO, mouse, iv, total radioactivity; for excreta dose per gram or mL at 1 h: Urine uptake
Method: as §1, §2, §3, §4, §5, §6, §7

SMILES | Blood: Salivary ratio [1] | Tumor: Blood ratio [1] | Tumor: Kidney ratio [1] | Tumor: Muscle ratio [1] | Tumor: Salivary ratio [1] | tissue uptake at 1 h (in vivo; Adrenal glands uptake) | tissue uptake at 1 h (in vivo; Blood uptake) | tissue uptake at 1 h (in vivo; Bone uptake) | tissue uptake at 1 h (in vivo; Brain uptake) | tissue uptake at 1 h (in vivo; Fat uptake) | tissue uptake at 1 h (in vivo; Heart uptake) | tissue uptake at 1 h (in vivo; Intestine uptake) | tissue uptake at 1 h (in vivo; Kidneys uptake) | tissue uptake at 1 h (in vivo; Lacrimal uptake) | tissue uptake at 1 h (in vivo; Liver uptake) | tissue uptake at 1 h (in vivo; Lungs uptake) | tissue uptake at 1 h (in vivo; Muscle uptake) | tissue uptake at 1 h (in vivo; Pancreas uptake) | tissue uptake at 1 h (in vivo; Salivary uptake) | tissue uptake at 1 h (in vivo; Seminal uptake) | further results
O=C(O)CSC[C@H](NC(=O)N[C@@H](CCCCNC(=O)[C@H](Cc1c2ccccc2cc2ccccc12)NC(=O)[C@H]1CC[C@H](CNC(=O)CN2CCN(CC(=O)O)CCN(CC(=O)O)CCN(CC(=O)O)CC2)CC1)C(=O)O)C(=O)O [68Ga-HTK03177, metal not drawn] | 3.14 ± 0.19 | 36.1 ± 12.5 | 3.25 ± 1.16 | 220 ± 135 | 112 ± 33.1 | 0.46 ± 0.17 %ID/g | 0.7 ± 0.06 %ID/g | 0.1 ± 0.03 %ID/g | 0.02 %ID/g | 0.09 ± 0.04 %ID/g | 0.21 ± 0.01 %ID/g | 0.21 ± 0.02 %ID/g | 7.76 ± 1 %ID/g | 0.12 ± 0.06 %ID/g | 0.33 ± 0.2 %ID/g | 0.61 ± 0.08 %ID/g | 0.18 ± 0.18 %ID/g | 0.14 ± 0.01 %ID/g | 0.22 ± 0.02 %ID/g | 0.28 ± 0.38 %ID/g | tissue uptake at 1 h (in vivo; Spleen uptake): 0.42 ± 0.15 %ID/g; tissue uptake at 1 h (in vivo; Stomach uptake): 0.15 ± 0.09 %ID/g; tissue uptake at 1 h (in vivo; Tail uptake): 0.74 ± 0.12 %ID/g; tissue uptake at 1 h (in vivo; Testes uptake): 0.25 ± 0.07 %ID/g; tissue uptake at 1 h (in vivo; Thyroid uptake): 0.23 ± 0.01 %ID/g; tissue uptake at 1 h (in vivo; Tumor uptake): 24.7 ± 6.85 %ID/g; excreta dose per gram or mL at 1 h (in vivo): 400 ± 262 %ID/g
O=C(O)COC[C@H](NC(=O)N[C@@H](CCCCNC(=O)[C@H](Cc1c2ccccc2cc2ccccc12)NC(=O)[C@H]1CC[C@H](CNC(=O)CN2CCN(CC(=O)O)CCN(CC(=O)O)CCN(CC(=O)O)CC2)CC1)C(=O)O)C(=O)O [68Ga-HTK03187, metal not drawn] | 4.27 ± 0.74 | 32.2 ± 8.53 | 7.67 ± 2.10 | 249 ± 61.2 | 133 ± 14.0 | 0.26 ± 0.06 %ID/g | 0.67 ± 0.1 %ID/g | 0.13 ± 0.03 %ID/g | 0.02 %ID/g | 0.07 ± 0.02 %ID/g | 0.19 ± 0.04 %ID/g | 0.23 ± 0.05 %ID/g | 2.83 ± 0.45 %ID/g | 0.09 ± 0.03 %ID/g | 0.21 ± 0.05 %ID/g | 0.52 ± 0.09 %ID/g | 0.09 ± 0.01 %ID/g | 0.12 ± 0.02 %ID/g | 0.16 ± 0.02 %ID/g | 0.65 ± 0.8 %ID/g | tissue uptake at 1 h (in vivo; Spleen uptake): 0.17 ± 0.02 %ID/g; tissue uptake at 1 h (in vivo; Stomach uptake): 0.08 ± 0.05 %ID/g; tissue uptake at 1 h (in vivo; Tail uptake): 0.46 ± 0.1 %ID/g; tissue uptake at 1 h (in vivo; Testes uptake): 0.15 ± 0.03 %ID/g; tissue uptake at 1 h (in vivo; Thyroid uptake): 0.18 ± 0.02 %ID/g; tissue uptake at 1 h (in vivo; Tumor uptake): 21.1 ± 3.62 %ID/g; excreta dose per gram or mL at 1 h (in vivo): 444 ± 192 %ID/g
O=C(O)CN1CCN(CC(=O)O)CCN(CC(=O)NC[C@H]2CC[C@H](C(=O)N[C@@H](Cc3c4ccccc4cc4ccccc34)C(=O)NCCCC[C@H](NC(=O)N[C@@H](C[C@@H](F)C(=O)O)C(=O)O)C(=O)O)CC2)CCN(CC(=O)O)CC1 [68Ga-HTK04033, metal not drawn] | 4.38 ± 0.57 | 31.7 ± 5.00 | 5.64 ± 1.37 | 221 ± 53.4 | 138 ± 21.1 | 0.16 ± 0.03 %ID/g | 0.59 ± 0.12 %ID/g | 0.08 ± 0.01 %ID/g | 0.02 %ID/g | 0.1 ± 0.03 %ID/g | 0.18 ± 0.06 %ID/g | 0.2 ± 0.04 %ID/g | 3.31 ± 0.34 %ID/g | 0.04 ± 0.03 %ID/g | 0.29 ± 0.09 %ID/g | 0.5 ± 0.05 %ID/g | 0.09 ± 0.04 %ID/g | 0.15 ± 0.08 %ID/g | 0.13 ± 0.02 %ID/g | 0.1 ± 0.04 %ID/g | tissue uptake at 1 h (in vivo; Spleen uptake): 0.19 ± 0.03 %ID/g; tissue uptake at 1 h (in vivo; Stomach uptake): 0.07 ± 0.03 %ID/g; tissue uptake at 1 h (in vivo; Tail uptake): 0.66 ± 0.5 %ID/g; tissue uptake at 1 h (in vivo; Testes uptake): 0.17 ± 0.05 %ID/g; tissue uptake at 1 h (in vivo; Thyroid uptake): 0.18 ± 0.03 %ID/g; tissue uptake at 1 h (in vivo; Tumor uptake): 18.5 ± 4.05 %ID/g; excreta dose per gram or mL at 1 h (in vivo): 440 ± 211 %ID/g
O=C(O)CCC[C@H](NC(=O)N[C@@H](CCCCNC(=O)[C@H](Cc1c2ccccc2cc2ccccc12)NC(=O)Cc1ccc(CNC(=O)CN2CCN(CC(=O)O)CCN(CC(=O)O)CCN(CC(=O)O)CC2)cc1)C(=O)O)C(=O)O [68Ga-HTK04036, metal not drawn] | 3.68 ± 0.41 | 21.0 ± 8.58 | 3.02 ± 1.44 | 139 ± 62.4 | 75.1 ± 28.2 | 0.3 ± 0.16 %ID/g | 0.69 ± 0.35 %ID/g | 0.1 ± 0.03 %ID/g | 0.02 ± 0.01 %ID/g | 0.09 ± 0.05 %ID/g | 0.22 ± 0.12 %ID/g | 0.41 ± 0.23 %ID/g | 5.82 ± 5 %ID/g | 0.06 ± 0.03 %ID/g | 0.48 ± 0.67 %ID/g | 0.55 ± 0.26 %ID/g | 0.11 ± 0.06 %ID/g | 0.13 ± 0.07 %ID/g | 0.18 ± 0.08 %ID/g | 2.08 ± 3.09 %ID/g | tissue uptake at 1 h (in vivo; Spleen uptake): 0.27 ± 0.13 %ID/g; tissue uptake at 1 h (in vivo; Stomach uptake): 0.12 ± 0.11 %ID/g; tissue uptake at 1 h (in vivo; Tail uptake): 0.42 ± 0.18 %ID/g; tissue uptake at 1 h (in vivo; Testes uptake): 0.25 ± 0.14 %ID/g; tissue uptake at 1 h (in vivo; Thyroid uptake): 0.22 ± 0.12 %ID/g; tissue uptake at 1 h (in vivo; Tumor uptake): 12.1 ± 2.15 %ID/g; excreta dose per gram or mL at 1 h (in vivo): 422 ± 163 %ID/g
O=C(O)CCC[C@H](NC(=O)N[C@@H](CCCCNC(=O)[C@H](Cc1c2ccccc2cc2ccccc12)NC(=O)Cc1cccc(CNC(=O)CN2CCN(CC(=O)O)CCN(CC(=O)O)CCN(CC(=O)O)CC2)c1)C(=O)O)C(=O)O [68Ga-HTK04037, metal not drawn] | 3.55 ± 0.46 | 26.3 ± 10.5 | 3.02 ± 1.22 | 165 ± 52.9 | 92.2 ± 34.5 | 0.19 ± 0.03 %ID/g | 0.51 ± 0.12 %ID/g | 0.07 ± 0.01 %ID/g | 0.02 %ID/g | 0.06 ± 0.01 %ID/g | 0.15 ± 0.03 %ID/g | 0.28 ± 0.03 %ID/g | 4.47 ± 0.9 %ID/g | 0.07 ± 0.04 %ID/g | 0.2 ± 0.03 %ID/g | 0.46 ± 0.09 %ID/g | 0.08 ± 0.03 %ID/g | 0.11 ± 0.01 %ID/g | 0.14 ± 0.03 %ID/g | 8.45 ± 10 %ID/g | tissue uptake at 1 h (in vivo; Spleen uptake): 0.24 ± 0.05 %ID/g; tissue uptake at 1 h (in vivo; Stomach uptake): 0.12 ± 0.05 %ID/g; tissue uptake at 1 h (in vivo; Tail uptake): 0.41 ± 0.16 %ID/g; tissue uptake at 1 h (in vivo; Testes uptake): 0.18 ± 0.04 %ID/g; tissue uptake at 1 h (in vivo; Thyroid uptake): 0.16 ± 0.03 %ID/g; tissue uptake at 1 h (in vivo; Tumor uptake): 13.1 ± 4.69 %ID/g; excreta dose per gram or mL at 1 h (in vivo): 396 ± 114 %ID/g

— patent US11504441B2, “Radiolabeled compounds targeting the prostate-specific membrane antigen” (PROVINCIAL HEALTH SERVICES AUTHORITY, priority 2019, dated 2022)
